Publication PMC8669397, “Cryo-EM structure of MukBEF reveals DNA loop entrapment at chromosomal unloading sites” (Molecular Cell, 2021)

B1: P. thracensis MatP (natural protein, Photorhabdus thracensis)
chain: MKYQQLENLECGWKWAYLIRKHQEGEPITKYIENSAAHAAVDKLIKLESEPVRVLEWIEQHMNPDLFNRMKQTIRARRKRHFNAEHQHTRKKSIDLDFPVWHRLSALSQRRGNTLSETIVQLIEDAERKEKYANQMSSLKHDLEAILGKNE
notes: cloned without tag; the C-terminal tetramerization tail is not visible; also called MatP2; source: E. coli BL21-Gold(DE3), pFB469, purified (HisTrap, Q flowthrough, SP)
B2: P. thracensis MukE (natural protein, Photorhabdus thracensis)
chain: MSSTHIEQFMPVKLAQALANSLFPELDSQLRAGRHIGIDDLDNHAFLMDFQEQLEEFYARYNVELIRAPEGFFYLRPRSTTLIPRSVLSELDMMVGKILCYLYLSPERLANQGIFTSQELYEELISLADEGKLMKFVNQRSSGSDLDKQKLQEKVRTTLNRLRRLGMVYFLPNNNNKFTITEAVFRFGADVRSGDDPREIQLRMIRDGEAMPVEGSLSLDDSENDETPDNSAEGAGDEQP
notes: MukE, KITE subunit of MukBEF, Photorhabdus thracensis; also called KITE protein MukE; source: E. coli BL21-Gold(DE3), co-expressed with MukB and MukF (pFB403) or with MukF (pFB486); co-purified with MukB

Key:
Assay in all cases: cryo-EM structure; MukB^EQ2E4F2–AcpP2 and MukB^EQ2–AcpP2 at 10 μM each, 80-bp matS DNA and MatP2; buffer H30 with 1 mM ATP, 2 mM MgCl2, 0.05% β-octyl glucoside; MatP/DNA/ATP-bound and apo particles from the same sample
[1] = biological target: T1, P. thracensis MukB(E1407Q) (Photorhabdus thracensis, UniProt A0A0F7LRY2 1-1482, E1407Q); details: both partners purified
T1 construct: MukB, SMC subunit of MukBEF, Photorhabdus thracensis, with E1407Q (slows ATP hydrolysis); Two copies in each MukBEF monomer (kappa-MukB and nu-MukB); also called MukB^EQ; kappa-MukB; source: E. coli BL21-Gold(DE3), pFB485, produced at 22°C; purified alone or with MukEF after mixing of cell pellets (Ni-NTA, hSENP1 elution, Q, Superose 6); not shown: His6-SUMO, N-terminal, cleaved

[2] = biological target: the molecule itself
[3] = biological target: B2; details: both partners purified

Row | Binder | binding result [1] | binding result [2] | binding result [3]
1 | B1 | binds | binds | binds
2 | B2 | – | binds | –
